Test results published in patent US9714285 (dated 2017).

What was measured:
TGFβ3 [1] = target: T1, TGFβ3 (human, UniProt P10600); assay: SPR
T1 chain: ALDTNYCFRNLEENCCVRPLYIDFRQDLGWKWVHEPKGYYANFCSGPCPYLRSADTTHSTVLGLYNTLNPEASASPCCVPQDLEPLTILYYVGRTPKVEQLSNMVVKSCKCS

TGFβ2 [2] = target: T2, TGFβ2 (human, UniProt P61812); assay: SPR
T2 chain: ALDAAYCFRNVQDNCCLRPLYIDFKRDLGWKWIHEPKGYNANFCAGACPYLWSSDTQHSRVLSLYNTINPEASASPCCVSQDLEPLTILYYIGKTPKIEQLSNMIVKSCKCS

TGFβ1 [3] = target: T3, TGFβ1 (human, UniProt P01137); assay: SPR
TGFβ3 [4] = target: T1, TGFβ3; assay: competition, SPR vs TGFβ-RIII
TGFβ2 [5] = target: T2, TGFβ2; assay: competition, SPR vs TGFβ-RIII
TGFβ2 [6] = target: T2, TGFβ2; assay: competition, SPR vs TGFβ-RII
TGFβ3 [7] = target: T1, TGFβ3; assay: competition, SPR vs TGFβ-RII
TGFβ1 [8] = target: T3, TGFβ1; assay: competition, SPR vs TGFβ-RII
TGFβ1 [9] = target: T3, TGFβ1; assay: competition, SPR vs TGFβ-RIII

B1: TGFβ-RI (protein)
chain: LQCFCHLCTKDNFTCVTDGLCFVSVTETTDKVIHNSMCIAEIDLIPRDRPFVCAPSSKTGSVTTTYCCNQDHCNKIELPTTVKSSPGLGPVEL
binding result (TGFβ3 [1]): no binding | binding result (TGFβ2 [2]): no binding | binding result (TGFβ1 [3]): no binding

B2: XPA.42.068 (antibody, V domains shown)
VH: not shown
VL: SSELTQPPSVSVAPGEKARITCGGNNIGRKSVHWYQQRPGQAPVVVLYYDRVRPSGIPERFSGSNSGNTATLTITRVEAGDEADYFCQVWDNTSEHVVFGGGTQLTVLG
EC50 (TGFβ3 [4]): 1.9 nM | EC50 (TGFβ2 [5]): 2.4 nM | EC50 (TGFβ2 [6]): 2.2 nM | EC50 (TGFβ3 [7]): 1.4 nM | EC50 (TGFβ1 [8]): 2 nM | EC50 (TGFβ1 [9]): 0.6 nM

B3: XPA.42.681 (antibody, V domains shown)
VH: not shown
VL: SYVLTQPPSVSVAPGKTARITCGGNNIGFRSVHWYQQKSGQAPVLVIYFDRARPSGIPERFSASNSENTATLTIRRVEAGDEADYYCQVWDSDSDDLVFGGGTQLTVLG
EC50 (TGFβ3 [4]): 1.1 nM | EC50 (TGFβ2 [5]): 2.1 nM | EC50 (TGFβ2 [6]): 1.7 nM | EC50 (TGFβ3 [7]): 1.2 nM | EC50 (TGFβ1 [8]): 2.3 nM | EC50 (TGFβ1 [9]): 1.2 nM

B4: XPA.42.089 (antibody, V domains shown)
VH: QVQLVQSGAEVKKPGSSVKVSCKASGGTFSSYAISWVRQAPGQGLEWMGGIIPIFGTANYAQKFQGRVTITADESTSTAYMELSSLRSEDTAVYYCARGLWEVRALPSVYWGQGTLVTVSS
VL: SYELTQPPSVSVAPGQTARITCGANDIGSKSVHWYQQKAGQAPVLVVSEDIIRPSGIPERISGSNSGNTATLTISRVEAGDEADYYCQVWDRDSDQYVFGTGTKVTVLG
EC50 (TGFβ3 [4]): 31 nM | EC50 (TGFβ2 [5]): 1.6 nM | EC50 (TGFβ2 [6]): 1.8 nM | EC50 (TGFβ3 [7]): 34 nM | EC50 (TGFβ1 [8]): 1.7 nM | EC50 (TGFβ1 [9]): 1.2 nM
